Data as given in patent US20190315864A1.

Target: Fc protein
Assay: ELISA, Fc protein coated, 10 ng VHH/well

B1: CTLA4 heavy chain single domain antibody No. 188 (VHH)
VHH: QVQLQESGGGSVQAGGSLRLSCAASGYTYSSVCMGWFRQALGKEREAVVGIDGDGITMYANSVKGRFTISKDNAKNTLYLQMNSLKPEDTAMYYCASGGGQGDGSCALTYWGQGTQVTVSS
  OD (against Fc): 1.02 OD405

B2: CTLA4 heavy chain single domain antibody No. J38 (VHH)
VHH: QVQLQESGGGSVQAGGSLRLSCAPSRYSGALMGWFRQAPGKEREGVAVISRSGLTTYYADSVKGRFTISQDTAKNTIYLQMNSMKPEDTAMYYCVAGWHVGGTWSETSSYDYWGQGTQVTVSS
  OD (against Fc): 0.752 OD405
